Source: US20250011418A1 (ZIELBIO, published 2025)
Where a chain is given by its changes, count along the chain named.

T1: Sec8-His (section 8 (Sec8), an antigenic region of CSP-1, tagged with a polyhistidine (His) tag)
T1 construct: also called Sec8-His antigen
T1 chain: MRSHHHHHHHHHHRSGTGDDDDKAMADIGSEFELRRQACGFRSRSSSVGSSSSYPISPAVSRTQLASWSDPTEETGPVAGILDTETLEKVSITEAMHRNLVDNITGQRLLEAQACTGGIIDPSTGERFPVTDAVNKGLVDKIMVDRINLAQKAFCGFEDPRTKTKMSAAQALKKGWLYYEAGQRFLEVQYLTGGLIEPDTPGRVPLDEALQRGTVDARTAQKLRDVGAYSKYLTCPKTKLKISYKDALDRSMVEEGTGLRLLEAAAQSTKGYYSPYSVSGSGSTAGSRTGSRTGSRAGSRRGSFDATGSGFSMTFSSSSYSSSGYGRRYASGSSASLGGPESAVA

B1: humanized anti-CSP-1 antibody, Antibody Number 42 (Table 1) (antibody, human IgG1, V domains shown)
VH: QIQLVQSGSELKKPGASVKVSCKASGYTFTDYSMHWVRQAPGQGLEWMGWINTETGEPTYAQGFTGRFVFSLDTSVSTAYLQISSLKAEDTAVYFCAPGGFAYWGQGTLVTVSS
VL: DIVMTQSPLSLPVTPGEPASISCRSSKSLLHSNGNTYLYWFLQKPGQSPQLLIYRMSNLASGVPDRFSGSGSGTDFTLKISRVEAEDVGVYYCMQHLEYPLTFGAGTKLELK
notes: also called Antibody 42
B2: humanized anti-CSP-1 antibody, Antibody Number 46 (Table 1) (antibody, human IgG1, V domains shown)
VH: EVQLVESGGGLVKPGGSLRLSCAASGFTFSRYGMSWVRQAPGKGLEWVSSISIGGTYTYYADSVKGRFTISRDNAKNSLYLQMNSLRAEDTAVYYCARRGYGNYSYYGMDYWGQGTLVTVSS
VL: B1 VL with N35I, F41Y, R55Q, G69S, M94A, H96N, Y99L, A105Q, L111I
notes: also called Antibody 46
B3: humanized anti-CSP-1 antibody, Antibody Number 44 (Table 1) (antibody, human IgG1, V domains shown)
VH: B2 VH with S35N
VL: B1 VL with N35I, F41Y, R55Q, M94A, H96N, Y99L, A105Q, L111I
notes: also called Antibody 44
B4: humanized anti-CSP-1 antibody, Antibody Number 43 (Table 1) (antibody, human IgG1, V domains shown)
VH: B2 VH with S35N
VL: B1 VL with N35I, F41Y, R55Q, L59R, M94A, H96N, Y99L, A105Q, L111I
notes: also called Antibody 43
B5: humanized anti-CSP-1 antibody, Antibody Number 45 (Table 1) (antibody, human IgG1, V domains shown)
VH: B2 VH with S35N
VL: B1 VL with N35I, F41Y, R55Q, G69S, M94A, H96N, Y99L, A105Q, L111I
notes: also called Antibody 45
B6: humanized anti-CSP-1 antibody, Antibody Number 8 (Table 1) (antibody, human IgG1, V domains shown)
VH: QIQLVQSGPEVKKPGASVKISCKASGYTFTDYSMHWVRQAPGQGLEWMGWINTETGEPTYAQKFQGRFTFTLDTSTSTAYLEISSLRSEDTAVYFCAPGGFAYWGQGTLVTVSS
VL: B1 VL with S7A, P8A, L9P, L11V, P18S, A19V, K44R, D75A, K79R
notes: also called Antibody 8
B7: humanized anti-CSP-1 antibody, Antibody Number 40 (Table 1) (antibody, human IgG1, V domains shown)
VH: B1 VH with I2V, H35N, F95Y
VL: B1 VL with L59R, A105Q, L111I
notes: also called Antibody 40
B8: humanized anti-CSP-1 antibody, Antibody Number 48 (Table 1) (antibody, human IgG1, V domains shown)
VH: B1 VH
VL: B1 VL with M56L
notes: also called Antibody 48
B9: humanized anti-CSP-1 antibody, Antibody Number 41 (Table 1) (antibody, human IgG1, V domains shown)
VH: B1 VH
VL: B1 VL with L59R, A105Q, L111I
notes: also called Antibody 41
B10: humanized anti-CSP-1 antibody, Antibody Number 49 (Table 1) (antibody, human IgG1, V domains shown)
VH: B2 VH with K13Q, G44R, S49A, S50T, A61P, V64M, A75S, S78T, V93M, N103Q
VL: DIVMTQSALSNPVTLGQSASISCRSSKSLLHSNGITYLYWYLQKPGQSPQLLIYQMSNRASGVPDRFSSSGSGTDFTLKISRVEAEDVGVYYCAQNLELPLTFGQGTKLEIK
notes: also called Antibody 49
B11: humanized anti-CSP-1 antibody, Antibody Number 50 (Table 1) (antibody, human IgG1, V domains shown)
VH: EVQLVESGGGLVQPGGSLRLSCAASGFTFSRYGMSWVRQAPGKRLEWVATISIGGTYTYYPDSMKGRFTISRDNSKNTLYLQMNSLRAEDTAMYYCARRGYGQYSYYGLDYWGQGTLVTVSS
VL: B10 VL
notes: also called Antibody 50
B12: antibody-drug conjugate comprising the murine anti-CSP-1 antibody 1H11 and the chemotherapeutic drug SN38 (antibody, V domains shown)
VH: QIQLVQSGPELKKPGETVKISCKASGYTFTDYSMHWVKQAPGKGLKWMGWINTETGEPTYADDFKGRFAFSLETSASTAYLQINNLKNEDTATYFCAPGGFAYWGQGTLVTVSA
VL: DIVMTQAAPSVPVTPGESVSISCRSSKSLLHSNGNTYLYWFLQRPGQSPQLLIYRMSNLASGVPDRFSGSGSGTAFTLRISRVEAEDVGVYYCMQHLEYPLTFGAGTKLELKR
modifications: SN38 (small-molecule drug) is conjugated to the antibody. The linker, the conjugation residues, the chain that carries it and the drug-to-antibody ratio are not stated, and the letters cannot carry it.
notes: also called 1H11-SN38 conjugate

Molecular target: T1, Sec8-His (section 8 (Sec8), an …)
Assay: BLI (Octet), single shot: antibody on anti-human IgG tips, 24 nM Sec8-His
Protocol: After humanization, the antibodies were tested for their capability to bind to an antigenic region of CSP-1 called section 8 (Sec8). Antigen binding was assessed by single-shot Octet analysis. Antibodies were loaded onto anti-human IgG tips, and the loaded tips were dipped into wells containing the Sec8-His antigen. Scouting experiments were used to determine ideal conditions for loading (10 minute incubation in 1 μg/mL IgG) and antigen binding (5 minute incubation in 24 nM Sec8-His, followed by a 5 minute dissociation step in buffer). Two negative controls were included with each experiment. First, a tip was loaded with irrelevant IgG dipped into 24 nM Sec8-His to control for non-specific interactions between the tip and the antigen. Next, tips loaded with humanized 1D7 variants were dipped into 24 nM GST-His to control for off-target binding of the antibody (a significant risk if a given variant is destabilized and/or exposes significant hydrophobic surface). The data from the irrelevant IgG control were subtracted from the data obtained with the […]-loaded tips. The mean and standard deviation of the signal change values for the GST-His control wells were used to calculate a threshold for positive binding (mean+3 standard deviations of the GST-His signal). Variants that were below this threshold are considered to have no specific binding to Sec8.

Binder | binding result
B1 | binds
B2 | binds
B3 | binds
B4 | binds
B5 | binds
B6 | binds
B7 | binds
B8 | binds
B9 | binds
B10 | binds
B11 | binds

Molecular target: T1, Sec8-His (section 8 (Sec8), an …)
Assay: ELISA on Sec8-His (target per paragraph 36), absorbance 650 nm; curve assigned by the marker in the legend

Binder | EC50 (read off the curve) [nM]
B12 | ~0.6

Molecular target: T1, Sec8-His (section 8 (Sec8), an …)
Assay: ELISA on Sec8-His (target per paragraph 36), absorbance 650 nm; no unit stands beside the number, the concentration axis is in nM; number as printed beside the name, but it fits the square curve better than the circle curve

Binder | Kd [nM]
B12 | 0.14
